Legend:
Assay in all cases: holdup assay
Set-up in all cases: key: below the threshold = too weak to quantify, mostly under pKd 3.1 to 4
Settings in all cases: plain residues with an end cap or a label only (N-terminal biotin on a linker: ado-ado)
FRMPD2_2, Q68DX3 = molecular target: FRMPD2_2, Q68DX3
SNX27, Q96L92 = molecular target: SNX27, Q96L92
GRID2IP_2, A4D2P6 = molecular target: GRID2IP_2, A4D2P6
PDZD2_2, O15018 = molecular target: T1, PDZD2_2, O15018
T1 sequence (O15018 329-429, limits assumed, looked up): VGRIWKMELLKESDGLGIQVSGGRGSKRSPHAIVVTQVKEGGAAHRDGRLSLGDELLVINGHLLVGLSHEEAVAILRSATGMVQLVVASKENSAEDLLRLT

MPDZ_10, O75970 = molecular target: T2, MPDZ_10, O75970
T2 sequence (O75970 1624-1722, limits assumed, looked up): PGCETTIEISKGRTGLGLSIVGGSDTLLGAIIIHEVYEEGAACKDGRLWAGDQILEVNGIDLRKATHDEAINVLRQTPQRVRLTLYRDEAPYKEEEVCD

GRASP, Q7Z6J2 = molecular target: GRASP, Q7Z6J2
Sequence of GRASP, Q7Z6J2 (Q7Z6J2 96-193): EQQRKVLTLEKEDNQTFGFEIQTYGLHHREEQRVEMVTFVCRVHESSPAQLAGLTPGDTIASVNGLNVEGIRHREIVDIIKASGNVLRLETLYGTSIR

SCRIB_3, Q14160 = molecular target: SCRIB_3, Q14160
Sequence of SCRIB_3, Q14160 (Q14160 999-1103): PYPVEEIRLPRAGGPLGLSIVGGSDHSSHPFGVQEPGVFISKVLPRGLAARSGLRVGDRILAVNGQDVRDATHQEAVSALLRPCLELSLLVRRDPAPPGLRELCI

LIN7B, Q9HAP6 = molecular target: T3, LIN7B, Q9HAP6
T3 sequence (Q9HAP6 88-185, limits assumed, looked up): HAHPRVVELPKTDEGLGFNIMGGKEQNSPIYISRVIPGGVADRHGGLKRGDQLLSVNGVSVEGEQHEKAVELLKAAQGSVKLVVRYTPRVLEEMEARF

DLG3_1, Q92796 = molecular target: T4, DLG3_1, Q92796
T4 sequence (Q92796 125-227, limits assumed, looked up): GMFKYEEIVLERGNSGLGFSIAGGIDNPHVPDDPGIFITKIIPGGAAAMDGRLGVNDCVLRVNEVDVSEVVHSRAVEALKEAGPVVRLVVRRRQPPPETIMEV

MPDZ_5, O75970 = molecular target: T5, MPDZ_5, O75970
T5 sequence (O75970 695-796, limits assumed, looked up): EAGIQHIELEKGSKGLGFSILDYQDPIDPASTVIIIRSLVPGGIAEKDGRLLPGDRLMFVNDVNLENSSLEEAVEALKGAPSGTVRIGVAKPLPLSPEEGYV

LIN7C, Q9NUP9 = molecular target: T6, LIN7C, Q9NUP9
T6 sequence (Q9NUP9 88-185, limits assumed, looked up): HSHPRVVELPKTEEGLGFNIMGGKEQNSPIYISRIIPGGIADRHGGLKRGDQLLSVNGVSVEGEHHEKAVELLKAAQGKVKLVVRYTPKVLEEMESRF

GRIP1_4, Q9Y3R0 = molecular target: T7, GRIP1_4, Q9Y3R0
T7 sequence (Q9Y3R0 467-571, limits assumed, looked up): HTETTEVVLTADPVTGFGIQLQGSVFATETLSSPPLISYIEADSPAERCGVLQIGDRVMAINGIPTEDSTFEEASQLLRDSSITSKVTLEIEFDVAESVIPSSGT

LNX1_2, Q8TBB1 = molecular target: LNX1_2, Q8TBB1
Sequence of LNX1_2, Q8TBB1 (Q8TBB1 371-470): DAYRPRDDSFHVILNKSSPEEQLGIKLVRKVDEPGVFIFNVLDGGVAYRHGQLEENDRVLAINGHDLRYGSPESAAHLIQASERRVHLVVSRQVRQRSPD

AHNAK1, Q09666 = molecular target: AHNAK1, Q09666
Sequence of AHNAK1, Q09666 (Q09666 4-100): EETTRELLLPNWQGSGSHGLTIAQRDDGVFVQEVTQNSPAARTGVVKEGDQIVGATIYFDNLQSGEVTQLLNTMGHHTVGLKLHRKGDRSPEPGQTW

MPP6, Q9NZW5 = molecular target: T8, MPP6, Q9NZW5
T8 sequence (Q9NZW5 125-219, limits assumed, looked up): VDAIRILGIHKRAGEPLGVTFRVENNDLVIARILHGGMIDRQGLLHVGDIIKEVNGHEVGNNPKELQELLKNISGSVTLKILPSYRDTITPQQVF

ARHGAP21, Q5T5U3 = molecular target: T9, ARHGAP21, Q5T5U3
T9 sequence (Q5T5U3 45-169, limits assumed, looked up): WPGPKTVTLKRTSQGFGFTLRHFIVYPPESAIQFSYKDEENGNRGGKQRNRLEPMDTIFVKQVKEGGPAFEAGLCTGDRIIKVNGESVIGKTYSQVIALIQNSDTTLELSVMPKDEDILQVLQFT

Inadl_6, Q8NI35 = molecular target: Inadl_6, Q8NI35
Sequence of Inadl_6, Q8NI35 (Q8NI35 1058-1167): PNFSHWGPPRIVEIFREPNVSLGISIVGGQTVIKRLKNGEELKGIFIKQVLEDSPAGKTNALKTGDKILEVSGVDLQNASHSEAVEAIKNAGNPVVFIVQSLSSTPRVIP

PICK1, Q9NRD5 = molecular target: PICK1, Q9NRD5
Sequence of PICK1, Q9NRD5 (Q9NRD5 17-115): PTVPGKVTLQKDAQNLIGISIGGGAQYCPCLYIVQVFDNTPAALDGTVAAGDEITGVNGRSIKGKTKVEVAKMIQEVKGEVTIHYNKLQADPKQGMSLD

DLG5_1, Q8TDM6 = molecular target: DLG5_1, Q8TDM6
Sequence of DLG5_1, Q8TDM6 (Q8TDM6 617-713): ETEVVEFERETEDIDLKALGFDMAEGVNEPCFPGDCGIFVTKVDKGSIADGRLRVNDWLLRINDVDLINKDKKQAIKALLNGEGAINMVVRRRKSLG

TIAM2, Q8IVF5 = molecular target: T10, TIAM2, Q8IVF5
T10 sequence (Q8IVF5 885-986, limits assumed, looked up): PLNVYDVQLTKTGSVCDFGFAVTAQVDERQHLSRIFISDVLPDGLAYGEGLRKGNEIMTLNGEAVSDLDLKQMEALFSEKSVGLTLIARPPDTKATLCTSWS

TX1BP3, O14907 = molecular target: T11, TX1BP3, O14907
T11 sequence (O14907 10-122, limits assumed, looked up): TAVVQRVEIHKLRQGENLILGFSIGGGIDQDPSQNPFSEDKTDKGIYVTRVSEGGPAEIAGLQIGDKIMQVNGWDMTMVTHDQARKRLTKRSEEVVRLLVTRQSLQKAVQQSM

LAP2, Q96RT1 = molecular target: LAP2, Q96RT1
Sequence of LAP2, Q96RT1 (Q96RT1 other isoform, or with tags, fused parts or gaps): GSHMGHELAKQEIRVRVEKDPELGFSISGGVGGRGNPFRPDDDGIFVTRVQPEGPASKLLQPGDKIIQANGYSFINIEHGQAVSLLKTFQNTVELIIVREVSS

MAGI1_2, Q96QZ7 = molecular target: MAGI1_2, Q96QZ7
Sequence of MAGI1_2, Q96QZ7 (Q96QZ7 456-580): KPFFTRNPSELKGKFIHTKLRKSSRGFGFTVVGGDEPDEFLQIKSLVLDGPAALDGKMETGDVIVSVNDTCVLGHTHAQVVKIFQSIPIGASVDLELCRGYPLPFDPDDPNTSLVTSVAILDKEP

FRMPD2_1, Q68DX3 = molecular target: FRMPD2_1, Q68DX3
Sequence of FRMPD2_1, Q68DX3 (Q68DX3 770-861): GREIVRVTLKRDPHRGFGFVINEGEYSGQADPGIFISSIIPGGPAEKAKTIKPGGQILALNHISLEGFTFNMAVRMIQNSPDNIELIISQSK

SNTB1, Q13884 = molecular target: T12, SNTB1, Q13884
T12 sequence (Q13884 107-205, limits assumed, looked up): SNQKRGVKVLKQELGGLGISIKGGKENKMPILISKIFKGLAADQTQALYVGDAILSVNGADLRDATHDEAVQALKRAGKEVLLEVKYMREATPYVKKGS

Sequence of GRID2IP_2, A4D2P6 (A4D2P6 272-370): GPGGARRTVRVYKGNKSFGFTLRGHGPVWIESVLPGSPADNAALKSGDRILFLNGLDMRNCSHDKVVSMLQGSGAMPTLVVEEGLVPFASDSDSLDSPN
Sequence of FRMPD2_2, Q68DX3 (Q68DX3 944-1038): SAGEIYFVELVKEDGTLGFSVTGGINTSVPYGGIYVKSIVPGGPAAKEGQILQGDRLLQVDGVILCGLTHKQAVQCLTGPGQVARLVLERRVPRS

FNSYSLTGYV [CLDN2, P57739]
pKd (FRMPD2_2, Q68DX3): below the threshold | pKd (SNX27, Q96L92): 4.06 | pKd (GRID2IP_2, A4D2P6): 3.68 | pKd (PDZD2_2, O15018): 4.65 | pKd (MPDZ_10, O75970): below the threshold | pKd (GRASP, Q7Z6J2): 3.82 | pKd (SCRIB_3, Q14160): 3.53 | pKd (LIN7B, Q9HAP6): below the threshold | pKd (DLG3_1, Q92796): below the threshold | pKd (MPDZ_5, O75970): below the threshold | pKd (LIN7C, Q9NUP9): below the threshold | pKd (GRIP1_4, Q9Y3R0): below the threshold | pKd (LNX1_2, Q8TBB1): 4.19 | pKd (AHNAK1, Q09666): below the threshold | pKd (MPP6, Q9NZW5): below the threshold | pKd (ARHGAP21, Q5T5U3): 3.94 | pKd (Inadl_6, Q8NI35): below the threshold | pKd (PICK1, Q9NRD5): 4.14 | pKd (DLG5_1, Q8TDM6): below the threshold | pKd (TIAM2, Q8IVF5): 3.94 | pKd (TX1BP3, O14907): 4.3 | pKd (LAP2, Q96RT1): below the threshold | pKd (MAGI1_2, Q96QZ7): below the threshold | pKd (FRMPD2_1, Q68DX3): 3.49 | pKd (SNTB1, Q13884): 3.61

PRAEAEDSFL [PDGFRB, P09619]
pKd (FRMPD2_2, Q68DX3): 3.52 | pKd (SNX27, Q96L92): 4.71 | pKd (GRID2IP_2, A4D2P6): 3.84 | pKd (PDZD2_2, O15018): 4.43 | pKd (MPDZ_10, O75970): below the threshold | pKd (GRASP, Q7Z6J2): 3.58 | pKd (SCRIB_3, Q14160): 4.06 | pKd (LIN7B, Q9HAP6): below the threshold | pKd (DLG3_1, Q92796): below the threshold | pKd (MPDZ_5, O75970): below the threshold | pKd (LIN7C, Q9NUP9): below the threshold | pKd (GRIP1_4, Q9Y3R0): below the threshold | pKd (LNX1_2, Q8TBB1): below the threshold | pKd (AHNAK1, Q09666): below the threshold | pKd (MPP6, Q9NZW5): 3.93 | pKd (ARHGAP21, Q5T5U3): 4 | pKd (Inadl_6, Q8NI35): 3.81 | pKd (PICK1, Q9NRD5): 4.2 | pKd (DLG5_1, Q8TDM6): 3.48 | pKd (TIAM2, Q8IVF5): below the threshold | pKd (TX1BP3, O14907): 4.34 | pKd (LAP2, Q96RT1): 3.53 | pKd (MAGI1_2, Q96QZ7): below the threshold | pKd (FRMPD2_1, Q68DX3): below the threshold | pKd (SNTB1, Q13884): 3.64

KKAPTNEFYA [SDC4, P31431]
pKd (FRMPD2_2, Q68DX3): below the threshold | pKd (SNX27, Q96L92): below the threshold | pKd (GRID2IP_2, A4D2P6): below the threshold | pKd (PDZD2_2, O15018): below the threshold | pKd (MPDZ_10, O75970): below the threshold | pKd (GRASP, Q7Z6J2): below the threshold | pKd (SCRIB_3, Q14160): below the threshold | pKd (LIN7B, Q9HAP6): 3.74 | pKd (DLG3_1, Q92796): below the threshold | pKd (MPDZ_5, O75970): below the threshold | pKd (LIN7C, Q9NUP9): 3.78 | pKd (GRIP1_4, Q9Y3R0): below the threshold | pKd (LNX1_2, Q8TBB1): below the threshold | pKd (AHNAK1, Q09666): below the threshold | pKd (MPP6, Q9NZW5): 3.91 | pKd (ARHGAP21, Q5T5U3): below the threshold | pKd (Inadl_6, Q8NI35): below the threshold | pKd (PICK1, Q9NRD5): below the threshold | pKd (DLG5_1, Q8TDM6): below the threshold | pKd (TIAM2, Q8IVF5): 3.94 | pKd (TX1BP3, O14907): 3.85 | pKd (LAP2, Q96RT1): below the threshold | pKd (MAGI1_2, Q96QZ7): below the threshold | pKd (FRMPD2_1, Q68DX3): 3.51 | pKd (SNTB1, Q13884): below the threshold

VKPQVSESKL [ACOT8, O14734]
pKd (FRMPD2_2, Q68DX3): below the threshold | pKd (SNX27, Q96L92): 5.34 | pKd (GRID2IP_2, A4D2P6): 3.55 | pKd (PDZD2_2, O15018): below the threshold | pKd (MPDZ_10, O75970): below the threshold | pKd (GRASP, Q7Z6J2): below the threshold | pKd (SCRIB_3, Q14160): 4.24 | pKd (LIN7B, Q9HAP6): 3.59 | pKd (DLG3_1, Q92796): below the threshold | pKd (MPDZ_5, O75970): below the threshold | pKd (LIN7C, Q9NUP9): below the threshold | pKd (GRIP1_4, Q9Y3R0): below the threshold | pKd (LNX1_2, Q8TBB1): below the threshold | pKd (AHNAK1, Q09666): below the threshold | pKd (MPP6, Q9NZW5): below the threshold | pKd (ARHGAP21, Q5T5U3): below the threshold | pKd (Inadl_6, Q8NI35): below the threshold | pKd (PICK1, Q9NRD5): 3.84 | pKd (DLG5_1, Q8TDM6): below the threshold | pKd (TIAM2, Q8IVF5): 4.03 | pKd (TX1BP3, O14907): below the threshold | pKd (LAP2, Q96RT1): below the threshold | pKd (MAGI1_2, Q96QZ7): below the threshold | pKd (FRMPD2_1, Q68DX3): below the threshold | pKd (SNTB1, Q13884): 3.85

From article PMC9482650, “Quantitative fragmentomics allow affinity mapping of interactomes” (Nature Communications, 2022)
